Data on 48 variants can be found in the Human Domainome abundance scans (Beltran et al. 2025).

First the molecules themselves.
B1: SH3 and PX domain-containing protein 2B, residues 155 to 209; numbered along this chain, A1X283 (parent)
chain: EQYVVVANYQKQESSEISLSVGQVVDIIEKNESGWWFVSTAEEQGWVPATCLEGQ

± gives the uncertainty stated by the source.

Variants of B1 are the subject of this data set. The experiment in a line: abundance fitness (aPCA) (normalised: wild type 0, dead -1); higher = more abundant; growth selection in yeast, the domain comes from the species named. To be noted: Homo sapiens.
As to EQYVVVANYQKQESNEISLSVGQVVDIIEKNESGWWFVSTAEEQGWVPATCLEGQ [S15N], the abundance fitness is -0.061 ± 0.23.

On to EQYVVVANYQKQESEEISLSVGQVVDIIEKNESGWWFVSTAEEQGWVPATCLEGQ [S15E], for which the abundance fitness is -0.172 ± 0.11. For EQYVVVANYQKQESYEISLSVGQVVDIIEKNESGWWFVSTAEEQGWVPATCLEGQ [S15Y] the value was -0.092 ± 0.092; for EQYVVVANYQKQESLEISLSVGQVVDIIEKNESGWWFVSTAEEQGWVPATCLEGQ [S15L], -0.27 ± 0.079. Under EQYVVVANYQKQESDEISLSVGQVVDIIEKNESGWWFVSTAEEQGWVPATCLEGQ [S15D] stands 0.02 ± 0.15; under EQYVVVANYQKQESTEISLSVGQVVDIIEKNESGWWFVSTAEEQGWVPATCLEGQ [S15T], -0.103 ± 0.12; under EQYVVVANYQKQESREISLSVGQVVDIIEKNESGWWFVSTAEEQGWVPATCLEGQ [S15R], 0.04 ± 0.073. Consider EQYVVVANYQKQESQEISLSVGQVVDIIEKNESGWWFVSTAEEQGWVPATCLEGQ [S15Q], for which the abundance fitness amounted to 0.103 ± 0.12.

On to EQYVVVANYQKQESPEISLSVGQVVDIIEKNESGWWFVSTAEEQGWVPATCLEGQ [S15P], for which the abundance fitness is -0.121 ± 0.13. Regarding EQYVVVANYQKQESFEISLSVGQVVDIIEKNESGWWFVSTAEEQGWVPATCLEGQ [S15F], the abundance fitness was -0.244 ± 0.093. Regarding EQYVVVANYQKQESWEISLSVGQVVDIIEKNESGWWFVSTAEEQGWVPATCLEGQ [S15W], the abundance fitness is -0.049 ± 0.1. For EQYVVVANYQKQESCEISLSVGQVVDIIEKNESGWWFVSTAEEQGWVPATCLEGQ [S15C] the value was -0.063 ± 0.1; for EQYVVVANYQKQESMEISLSVGQVVDIIEKNESGWWFVSTAEEQGWVPATCLEGQ [S15M], -0.18 ± 0.12; for EQYVVVANYQKQESVEISLSVGQVVDIIEKNESGWWFVSTAEEQGWVPATCLEGQ [S15V], -0.119 ± 0.095. For EQYVVVANYQKQESGEISLSVGQVVDIIEKNESGWWFVSTAEEQGWVPATCLEGQ [S15G] the value was -0.073 ± 0.073; for EQYVVVANYQKQESAEISLSVGQVVDIIEKNESGWWFVSTAEEQGWVPATCLEGQ [S15A], -0.01 ± 0.085; for EQYVVVANYQKQESIEISLSVGQVVDIIEKNESGWWFVSTAEEQGWVPATCLEGQ [S15I], -0.201 ± 0.14. For the variant EQYVVVANYQKQESHEISLSVGQVVDIIEKNESGWWFVSTAEEQGWVPATCLEGQ [S15H], the abundance fitness came to 0.055 ± 0.23. For EQYVVVANYQKQESSSISLSVGQVVDIIEKNESGWWFVSTAEEQGWVPATCLEGQ [E16S] the value was -0.177 ± 0.091. Consider EQYVVVANYQKQESSLISLSVGQVVDIIEKNESGWWFVSTAEEQGWVPATCLEGQ [E16L], for which the abundance fitness was -0.805 ± 0.12.

EQYVVVANYQKQESSFISLSVGQVVDIIEKNESGWWFVSTAEEQGWVPATCLEGQ [E16F]: the abundance fitness was -0.868 ± 0.17. EQYVVVANYQKQESSNISLSVGQVVDIIEKNESGWWFVSTAEEQGWVPATCLEGQ [E16N]: the abundance fitness is -0.2 ± 0.14.

Take EQYVVVANYQKQESSGISLSVGQVVDIIEKNESGWWFVSTAEEQGWVPATCLEGQ [E16G]: the abundance fitness is 0.057 ± 0.061. As to EQYVVVANYQKQESSPISLSVGQVVDIIEKNESGWWFVSTAEEQGWVPATCLEGQ [E16P], the abundance fitness is -0.667 ± 0.17. EQYVVVANYQKQESSQISLSVGQVVDIIEKNESGWWFVSTAEEQGWVPATCLEGQ [E16Q]: the abundance fitness is -0.008 ± 0.15.

Take EQYVVVANYQKQESSCISLSVGQVVDIIEKNESGWWFVSTAEEQGWVPATCLEGQ [E16C]: the abundance fitness was -0.505 ± 0.16. For EQYVVVANYQKQESSMISLSVGQVVDIIEKNESGWWFVSTAEEQGWVPATCLEGQ [E16M] the value was -0.449 ± 0.093; for EQYVVVANYQKQESSDISLSVGQVVDIIEKNESGWWFVSTAEEQGWVPATCLEGQ [E16D], -0.211 ± 0.15. Consider EQYVVVANYQKQESSAISLSVGQVVDIIEKNESGWWFVSTAEEQGWVPATCLEGQ [E16A], for which the abundance fitness is -0.312 ± 0.079. Turning to EQYVVVANYQKQESSIISLSVGQVVDIIEKNESGWWFVSTAEEQGWVPATCLEGQ [E16I], the abundance fitness was -0.692 ± 0.19. As for EQYVVVANYQKQESSKISLSVGQVVDIIEKNESGWWFVSTAEEQGWVPATCLEGQ [E16K], the abundance fitness is -0.16 ± 0.16. For EQYVVVANYQKQEFSEISLSVGQVVDIIEKNESGWWFVSTAEEQGWVPATCLEGQ [S14F] the value was -0.458 ± 0.15; for EQYVVVANYQKQEASEISLSVGQVVDIIEKNESGWWFVSTAEEQGWVPATCLEGQ [S14A], -0.13 ± 0.11; for EQYVVVANYQKQEQSEISLSVGQVVDIIEKNESGWWFVSTAEEQGWVPATCLEGQ [S14Q], -0.347 ± 0.2. With EQYVVVANYQKQEMSEISLSVGQVVDIIEKNESGWWFVSTAEEQGWVPATCLEGQ [S14M], the abundance fitness was -0.05 ± 0.13.

EQYVVVANYQKQENSEISLSVGQVVDIIEKNESGWWFVSTAEEQGWVPATCLEGQ [S14N]: the abundance fitness was 0.083 ± 0.45. For EQYVVVANYQKQEWSEISLSVGQVVDIIEKNESGWWFVSTAEEQGWVPATCLEGQ [S14W] the value was -0.171 ± 0.1; for EQYVVVANYQKQEPSEISLSVGQVVDIIEKNESGWWFVSTAEEQGWVPATCLEGQ [S14P], -0.005 ± 0.1; for EQYVVVANYQKQEKSEISLSVGQVVDIIEKNESGWWFVSTAEEQGWVPATCLEGQ [S14K], 0.026 ± 0.11. For EQYVVVANYQKQEHSEISLSVGQVVDIIEKNESGWWFVSTAEEQGWVPATCLEGQ [S14H] the value was -0.125 ± 0.14; for EQYVVVANYQKQERSEISLSVGQVVDIIEKNESGWWFVSTAEEQGWVPATCLEGQ [S14R], -0.073 ± 0.068. As for EQYVVVANYQKQELSEISLSVGQVVDIIEKNESGWWFVSTAEEQGWVPATCLEGQ [S14L], the abundance fitness came out at 0.027 ± 0.1. EQYVVVANYQKQETSEISLSVGQVVDIIEKNESGWWFVSTAEEQGWVPATCLEGQ [S14T]: the abundance fitness was -0.036 ± 0.087. Regarding EQYVVVANYQKQEGSEISLSVGQVVDIIEKNESGWWFVSTAEEQGWVPATCLEGQ [S14G], the abundance fitness was -0.071 ± 0.063. Consider EQYVVVANYQKQEISEISLSVGQVVDIIEKNESGWWFVSTAEEQGWVPATCLEGQ [S14I], for which the abundance fitness worked out at 0.014 ± 0.2. For EQYVVVANYQKQEVSEISLSVGQVVDIIEKNESGWWFVSTAEEQGWVPATCLEGQ [S14V] the value was 0.014 ± 0.086; for EQYVVVANYQKQEYSEISLSVGQVVDIIEKNESGWWFVSTAEEQGWVPATCLEGQ [S14Y], -0.073 ± 0.13; for EQYVVVANYQKQECSEISLSVGQVVDIIEKNESGWWFVSTAEEQGWVPATCLEGQ [S14C], -0.018 ± 0.1.
